Source: US20090311253A1 (AbbVie / Abbott, published 2009)
Values joined by “and” are separate entries in the source; they are usually repeats but may differ in a detail not shown here. Equal entries are not always repeated. Blank lines part the entries; values can stand above or below the binder they belong to.

Columns and labels:
[1] = target: T1, Recombinant Human IL-6 sR (human, UniProt P08887 20-358, limits assumed); experiment: Biacore SPR
T1 construct: domain: IL-6 sR; soluble receptor; also called IL-6R
T1 sequence (looked up): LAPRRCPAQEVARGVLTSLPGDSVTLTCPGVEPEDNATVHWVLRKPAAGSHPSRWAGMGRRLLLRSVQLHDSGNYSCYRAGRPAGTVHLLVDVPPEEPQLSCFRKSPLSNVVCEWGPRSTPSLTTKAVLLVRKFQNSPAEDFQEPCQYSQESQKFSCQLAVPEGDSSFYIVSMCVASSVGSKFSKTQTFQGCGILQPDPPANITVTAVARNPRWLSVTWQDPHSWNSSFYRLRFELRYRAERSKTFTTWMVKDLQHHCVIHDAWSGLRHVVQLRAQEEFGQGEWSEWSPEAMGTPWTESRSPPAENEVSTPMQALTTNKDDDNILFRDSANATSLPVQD
Procedure: (§1) The BIACORE assay (Biacore, Inc, Piscataway, N.J.) determines the affinity of antibodies or DVD-Ig with kinetic measurements of on-rate and off-rate constants. Binding of antibodies or DVD-Ig to a target antigen (for example, a purified recombinant target antigen) is determined by surface plasmon resonance-based measurements with a BiacoreR 1000 or 3000 instrument (Biacore® AB, Uppsala, Sweden) using running HBS-EP (10 mM HEPES [pH 7.4], 150 mM NaCl, 3 mM EDTA, and 0.005% surfactant P20) at 25° C. All chemicals are obtained from Biacore® AB (Uppsala, Sweden) or otherwise from a different source as described in the text. For example, approximately 5000 RU of goat anti-mouse IgG, (Fcγ), fragment specific polyclonal antibody (Pierce Biotechnology Inc, Rockford, Ill.) diluted in 10 mM sodium acetate (pH 4.5) is directly immobilized across a CM5 research grade biosensor chip using a standard amine coupling kit according to manufacturer's instructions and procedures at 25 μg/ml. Unreacted moieties on the biosensor surface are blocked with ethanolamine. Modified carboxymethyl dextran surface in flowcell 2 and 4 is used as a reaction surface. Unmodified carboxymethyl dextran without goat anti-mouse IgG in flow cell 1 and 3 is used as the reference surface. For kinetic analysis, rate equations derived from the 1:1 Langmuir binding model are fitted simultaneously to association and dissociation phases of all eight injections (using global fit analysis) with the use of Biaevaluation 4.0.1 software. Purified antibodies or DVD-Ig are diluted in HEPES-buffered saline for capture across goat anti-mouse IgG specific reaction surfaces. Antibodies or DVD-Ig to be captured as a ligand (25 μg/ml) are injected over reaction matrices at a flow rate of 5 μl/min. The association and dissociation rate constants, kₒₙ (M⁻¹s⁻¹) and koff (s⁻¹) are determined under a continuous flow rate of 25 μl/min. Rate constants are derived by making kinetic binding measurements at different antigen concentrations ranging from […]. The equilibrium dissociation constant (M) of the reaction between antibodies or DVD-Igs and the target antigen is then calculated from the kinetic rate constants by the following formula: KD=koff/kₒₙ. Binding is recorded as a function of time and kinetic rate constants are calculated.

[2] = target: T1, Recombinant Human IL-6 sR; experiment: direct bind ELISA
Procedure: (§2) Enzyme Linked Immunosorbent Assays to screen for antibodies that bind a desired target antigen were performed as follows. High bind ELISA plates (Corning Costar # 3369, Acton, Mass.) were coated with 100 μL/well of 10 μg/ml of desired target antigen (R&D Systems, Minneapolis, Minn.) or desired target antigen extra-cellular domain/FC fusion protein (R&D Systems, Minneapolis, Minn.) or monoclonal mouse anti-polyhistidine antibody (R&D Systems # MAB050, Minneapolis, Minn.) in phosphate buffered saline (10×PBS, Abbott Bioresearch Center, Media Prep# MPS-073, Worcester, Mass.) overnight at 4° C. Plates were washed four times with PBS containing 0.02% Tween 20. Plates were blocked by the addition of 300 μL/well blocking solution (non-fat dry milk powder, various retail suppliers, diluted to 2% in PBS) for ½ hour at room temperature. Plates were washed four times after blocking with PBS containing 0.02% Tween 20.
(§3) Plates were washed 4 times with PBS containing 0.02% Tween 20.
(§4) One hundred microliters of enhanced TMB solution (Neogen Corp. #308177, K Blue, Lexington, Ky.) was added to each well and incubated for 10 minutes at room temperature. The reaction was stopped by the addition of 50 μL 1N sulphuric acid. Plates were read spectrophotometrically at a wavelength of 450 nm.

IL-6R on cells [3] = target: T2, IL-6R on cells (UniProt P08887 20-468, limits assumed); experiment: cell-based or functional assay
T2 sequence (looked up): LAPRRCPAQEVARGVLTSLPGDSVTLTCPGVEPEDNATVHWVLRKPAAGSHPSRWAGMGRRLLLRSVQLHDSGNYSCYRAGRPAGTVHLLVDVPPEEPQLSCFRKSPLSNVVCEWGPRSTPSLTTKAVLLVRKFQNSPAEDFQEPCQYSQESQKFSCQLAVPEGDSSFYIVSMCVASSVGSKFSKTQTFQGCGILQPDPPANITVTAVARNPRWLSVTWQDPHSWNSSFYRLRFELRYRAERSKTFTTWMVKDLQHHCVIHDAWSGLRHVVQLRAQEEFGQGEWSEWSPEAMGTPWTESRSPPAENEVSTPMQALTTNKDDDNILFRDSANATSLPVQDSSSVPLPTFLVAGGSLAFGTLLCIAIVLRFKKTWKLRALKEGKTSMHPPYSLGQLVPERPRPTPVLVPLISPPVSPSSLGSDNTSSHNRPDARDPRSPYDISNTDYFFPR

IL-6R on cells [4] = target: T2, IL-6R on cells; experiment: flow cytometry on cells, 2 µg/mL
Procedure: Stable cell lines overexpressing a cell-surface antigen of interest or human tumor cell lines were harvested from tissue culture flasks and resuspended in phosphate buffered saline (PBS) containing 5% fetal bovine serum (PBS/FBS). Prior to staining, human tumor cells were incubated on ice with (100 μl) human IgG at 5 μg/ml in PBS/FCS. 1−5×10⁵ cells were incubated with antibody or DVD-Ig (2 μg/mL) in PBS/FBS for 30-60 minutes on ice. […] After 30 minutes incubation on ice, cells were washed twice and resuspended in PBS/FBS. Fluorescence was measured using a Becton Dickinson FACSCalibur (Becton Dickinson, San Jose, Calif.).
The geometric mean is the n root of the multiplication product of n fluorescent signals (a1×a2×a3 . . . an). With log-transformed data the geometric mean is used to normalize the weighting of the data distribution.

[5] = target: T3, Recombinant Human TRANCE/RANKL/TNFSF 11 (human, UniProt O14788 69-317); experiment: direct bind ELISA
T3 construct: extracellular domain
T3 sequence (looked up): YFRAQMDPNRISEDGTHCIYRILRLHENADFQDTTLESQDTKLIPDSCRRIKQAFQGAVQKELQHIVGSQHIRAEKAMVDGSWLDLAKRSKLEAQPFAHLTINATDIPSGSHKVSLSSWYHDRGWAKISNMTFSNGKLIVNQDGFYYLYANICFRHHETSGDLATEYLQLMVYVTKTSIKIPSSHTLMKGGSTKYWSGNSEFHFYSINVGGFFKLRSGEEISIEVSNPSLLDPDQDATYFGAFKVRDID
Procedure: as §2, §3, §4

Recombinant Human IL-13 [6] = target: T4, Recombinant Human IL-13 (human, UniProt P35225 35-146, limits assumed); experiment: Biacore SPR
Procedure: as §1

Recombinant Human IL-13 [7] = target: T4, Recombinant Human IL-13; experiment: cell-based or functional assay
Recombinant Human IL-9 = Recombinant Human IL-9 (human, UniProt P15248 19-144); experiment: Biacore SPR
Procedure: as §1

Recombinant Human IL-4 [8] = target: T5, Recombinant Human IL-4 (human, UniProt P05112 25-153); experiment: Biacore SPR
T5 sequence (looked up): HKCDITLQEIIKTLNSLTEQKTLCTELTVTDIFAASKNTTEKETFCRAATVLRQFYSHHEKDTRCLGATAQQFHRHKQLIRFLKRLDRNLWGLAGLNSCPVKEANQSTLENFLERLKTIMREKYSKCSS
Procedure: as §1

Recombinant Human IL-4 [9] = target: T5, Recombinant Human IL-4; experiment: direct bind ELISA
Procedure: as §2, §3, §4

Recombinant Human IL-4 [10] = target: T5, Recombinant Human IL-4; experiment: cell-based or functional assay
[11] = target: T3, Recombinant Human TRANCE/RANKL/TNFSF 11; experiment: Biacore SPR
Procedure: as §1

Recombinant Human IL-1β [12] = target: T6, Recombinant Human IL-1β (human, UniProt P01584 117-269); experiment: Biacore SPR
T6 construct: also called IL-1b; IL-1B
Procedure: as §1

Recombinant Human IL-1β [13] = target: T6, Recombinant Human IL-1β; experiment: direct bind ELISA
Procedure: as §2, §3, §4

Recombinant Human IL-1β [14] = target: T6, Recombinant Human IL-1β; experiment: cell-based or functional assay

Sequence of Recombinant Human IL-9 (P15248 19-144 limits assumed): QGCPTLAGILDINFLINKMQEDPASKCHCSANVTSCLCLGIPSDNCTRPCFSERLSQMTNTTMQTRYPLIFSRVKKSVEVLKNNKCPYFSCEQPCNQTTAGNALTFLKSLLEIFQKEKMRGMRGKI
T4 sequence (P35225 35-146 limits assumed): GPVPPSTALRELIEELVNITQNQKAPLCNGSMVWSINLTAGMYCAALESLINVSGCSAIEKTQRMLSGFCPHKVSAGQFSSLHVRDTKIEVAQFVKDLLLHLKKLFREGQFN

B1: AB054 (antibody, human IgG1, kappa, V domains shown)
VH: EVQLQESGPGLVRPSQTLSLTCTVSGYSITSDHAWSWVRQPPGRGLEWIGYISYSGITTYNPSLKSRVTMLRDTSKNQFSLRLSSVTAADTAVYYCARSLARTTAMDYWGQGSLVTVSS
VL: DIQMTQSPSSLSASVGDRVTITCRASQDISSYLNWYQQKPGKAPKLLIYYTSRLHSGVPSRFSGSGSGTDFTFTISSLQPEDIATYYCQQGNTLPYTFGQGTKVEIKR
notes: vectors V1 and V2; also called anti-IL-6R parent antibody
Kd [1]: 0.614 nM | koff [1]: 0.000206 s⁻¹ | kon [1]: 336000 M⁻¹ s⁻¹ | EC50 [2]: 1.42 nM and 1.24 nM and 1.31 nM | IL-6 induced pSTAT3 in TF-1 cells, EC50 (IL-6R on cells [3]): 0.07 nM | FACS Geometric Mean (IL-6R on cells [4]): 5.94

B3: AB051 (antibody, human IgG1, kappa, V domains shown)
VH: EVTLRESGPGLVKPTQTLTLTCTLYGFSLSTSDMGVDWIRQPPGKGLEWLAHIWWDDVKRYNPALKSRLTISKDTSKNQVVLKLTSVDPVDTATYYCARTVSSGYIYYAMDYWGQGTLVTVSS
VL: DIQMTQSPSSLSASVGDRVTISCRASQDIRNYLNWYQQKPGKAPKLLIFYTSKLHSGVPSRFSGSGSGTDYTLTISSLQPEDIATYYCQQGLTPPLTFGGGTKVEIKR
notes: vectors V1 and V2
kon (Recombinant Human IL-13 [6]): 2.14e+06 M⁻¹ s⁻¹ | IL-13 Neutralization Assay EC50 (A549 cells, hTARC) (Recombinant Human IL-13 [7]): 0.1 nM

B5: AB027 (antibody, human IgG1, kappa, V domains shown)
VH: QVTLRESGPALVKPTQTLTLTCTFSGFSLSTSGMGVSWIRQPPGKGLEWLAHIYWDDDKRYNPSLKSRLTISKDTSRNQVVLTMTNMDPVDTATYYCARRETVFYWYFDVWGRGTPVTVSS
VL: DIVLTQSPSSLSASVGDRVTITCKASQSVDYDGDSYMNWYQQKPGKAPKLLIYAASNLESGIPSRFSGSGSGTDFTFTISSLQPEDIATYYCQQSNEDPPTFGQGTKVEIKR
notes: vectors V1 and V2; also called anti-IL-4 parent antibody
Kd (Recombinant Human IL-4 [8]): 0.0219 nM | koff (Recombinant Human IL-4 [8]): 0.00013 s⁻¹ | kon (Recombinant Human IL-4 [8]): 5.92e+06 M⁻¹ s⁻¹ | EC50 (Recombinant Human IL-4 [9]): 5.81 nM | IL-4 Neutralization Assay EC50 (A549 cells, hTARC) (Recombinant Human IL-4 [10]): 0.21 nM

The next lines start with the values.

EC50 [2]: 0.96 nM | EC50 [5]: 0.53 nM | IL-6 induced pSTAT3 in TF-1 cells, EC50 (IL-6R on cells [3]): 0.16 nM | FACS Geometric Mean (IL-6R on cells [4]): 8.43
B2: DVD129 (bispecific antibody, human IgG1, kappa)
heavy: not shown
light: DIQMTQSPSSLSASVGDRVTITCRASQDISSYLNWYQQKPGKAPKLLIYYTSRLHSGVPSRFSGSGSGTDFTFTISSLQPEDIATYYCQQGNTLPYTFGQGTKVEIKRTVAAPEIVLTQSPGTLSLSPGERATLSCRASQSVRGRYLAWYQQKPGQAPRLLIYGASSRATGIPDRFSGSGSGTDFTLTISRLEPEDFAVFYCQQYGSSPRTFGQGTKVEIKRTVAAPSVFIFPPSDEQLKSGTASVVCLLNNFYPREAKVQWKVDNALQSGNSQESVTEQDSKDSTYSLSSTLTLSKADYEKHKVYACEVTHQGLSSPVTKSFNRGEC
notes: vectors V1, V2; also called IL-6R and RANKL DVD-Ig

Kd (Recombinant Human IL-9): 0.00993 nM | koff (Recombinant Human IL-9): 5.62e-05 s⁻¹ | kon (Recombinant Human IL-9): 5.66e+06 M⁻¹ s⁻¹
B4: AB056 (antibody, human IgG1, kappa, V domains shown)
VH: QVQLQQSGAELMKPGASVKLSCKATGYTFTGSWIEWIKQRPGHGLEWIGQILPGSGSAYYNEKFKGKATFTADTSSKTVYIQLISLTTEDSAIYYCAREDNYGSSSLAYWGQGTLLTVSA
VL: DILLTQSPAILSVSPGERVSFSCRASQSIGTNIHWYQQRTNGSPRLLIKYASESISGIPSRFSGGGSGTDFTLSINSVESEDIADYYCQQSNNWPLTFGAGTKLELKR
notes: vectors V1 and V2

Kd [11]: < 0.00877 nM | koff [11]: < 1e-06 s⁻¹ | kon [11]: 114000 M⁻¹ s⁻¹ | Kd (Recombinant Human IL-1β [12]): < 0.117 nM | koff (Recombinant Human IL-1β [12]): < 1e-06 s⁻¹ | kon (Recombinant Human IL-1β [12]): 8520 M⁻¹ s⁻¹ | EC50 [5]: 0.4 nM | EC50 (Recombinant Human IL-1β [13]): 4460 nM | IL-1β Neutralization Assay EC50 (MRC5 cells, hIL-8) (Recombinant Human IL-1β [14]): 4.29 nM
B6: DVD126 (bispecific antibody, human IgG1, kappa)
heavy: not shown
light: EIVLTQSPGTLSLSPGERATLSCRASQSVRGRYLAWYQQKPGQAPRLLIYGASSRATGIPDRFSGSGSGTDFTLTISRLEPEDFAVFYCQQYGSSPRTFGQGTKVEIKRTVAAPEIVLTQSPDFQSVTPKEKVTITCRASQSIGSSLHWYQQKPDQSPKLLIKYASQSFSGVPSRFSGSGSGTDFTLTINSLEAEDAAAYYCHQSSSLPFTFGPGTKVDIKRTVAAPSVFIFPPSDEQLKSGTASVVCLLNNFYPREAKVQWKVDNALQSGNSQESVTEQDSKDSTYSLSSTLTLSKADYEKHKVYACEVTHQGLSSPVTKSFNRGEC
notes: outer AB018, inner AB032; vectors V1, V2
